The source of these data is US20060141582A1 (ZymoGenetics, published 2006).

Assay [1] concerns the target CRF2-4/IL-22RA heterodimeric receptor on BaF3 cells (BaF3/CRF2-4/IL-22RA cells) (human) (UniProt Q08334). In words: cell-based or functional assay.
The target of assay [2] is T1, human IL-22RA on transfected cells (BaF3/IL-22RA/IL-20RB, BaF3/IL-22RA/CRF2-4, 293 or P815 cells) (human, UniProt Q8N6P7 16-574).
T1 construct: also called huIL-22RA; hIL-22RA
T1 sequence: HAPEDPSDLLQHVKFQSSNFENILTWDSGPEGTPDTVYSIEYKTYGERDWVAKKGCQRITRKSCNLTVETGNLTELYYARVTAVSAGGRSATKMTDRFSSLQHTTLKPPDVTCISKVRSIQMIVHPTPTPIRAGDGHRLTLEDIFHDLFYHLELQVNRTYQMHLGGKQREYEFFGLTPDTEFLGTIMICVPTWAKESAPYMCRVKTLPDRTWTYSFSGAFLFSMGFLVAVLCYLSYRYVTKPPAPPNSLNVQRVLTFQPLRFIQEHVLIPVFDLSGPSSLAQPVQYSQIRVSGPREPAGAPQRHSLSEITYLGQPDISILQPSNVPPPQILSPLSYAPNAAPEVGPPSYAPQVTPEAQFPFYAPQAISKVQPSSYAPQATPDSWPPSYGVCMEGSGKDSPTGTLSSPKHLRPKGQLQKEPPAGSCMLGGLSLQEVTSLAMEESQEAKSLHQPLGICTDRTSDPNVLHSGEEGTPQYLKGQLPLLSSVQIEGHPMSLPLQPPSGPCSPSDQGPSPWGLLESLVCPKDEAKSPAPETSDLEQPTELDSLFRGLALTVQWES
In words: flow cytometry on P815 cells transfected with hIL-22RA, 5 ug/ml huIL-22-biotin; used to select the clone. Here is the method: WT P815 Cells (ATCC No. TIB-64) were transfected with a plasmid vector containing the hIL-22RA cDNA sequence (e.g., SEQ ID NO:1) and a selectable puromycin-resistance marker, using Fugene Reagent according to the manufacturer's protocol (Roche, Indianapolis, Ind.). Cells were placed under Puromycin selection 48 hours following transfection. Puromycin-resistant transfectants were cloned by limiting dilution, and screened for their level of hIL-22RA cell surface expression by flow cytometry, using biotinylated human IL-22 (huIL-22-biotin). Briefly, cells were incubated with 5 ug/ml huIL-22-biotin for 30 minutes on ice and then washed. Binding of huIL-22-biotin to the cells was then detected using PE-labeled streptavidin at 1:500. Cells were analyzed on a Facscan flow cytometer using Cellquest software. (Becton Dickinson, San Jose, Calif.).

CRF2-4/IL-22RA heterodimeric receptor on BaF3 cells (BaF3/CRF2-4/IL-22RA cells) (human), sequence (Q08334 20-325 limits assumed, one chain of several): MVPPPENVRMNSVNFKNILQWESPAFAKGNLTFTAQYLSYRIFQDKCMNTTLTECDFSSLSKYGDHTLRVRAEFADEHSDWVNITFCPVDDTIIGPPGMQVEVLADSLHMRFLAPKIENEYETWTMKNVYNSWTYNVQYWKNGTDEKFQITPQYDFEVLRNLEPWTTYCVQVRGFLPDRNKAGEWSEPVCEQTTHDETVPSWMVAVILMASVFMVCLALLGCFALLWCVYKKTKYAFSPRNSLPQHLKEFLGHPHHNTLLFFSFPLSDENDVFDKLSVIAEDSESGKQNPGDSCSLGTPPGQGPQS

Take “IL-22-CEE (IL-22 polypeptide containing C-terminal GluGlu (EE) tag), purified from BHK 570 cells (ligand)”: in assay [1], the proliferation of BaF3/CRF2-4/IL-22RA cells (Alamar Blue), fold induction at 0.06 ng/ml IL-22-CEE (fold induction) stood at 2 and the proliferation of BaF3/CRF2-4/IL-22RA cells (Alamar Blue), fold over background at 50 ng/ml IL-22-CEE (fold over background) came out at 15.

B1: biotinylated human IL-22 (ligand)
chain: APISSHCRLDKSNFQQPYITNRTFMLAKEASLADNNTDVRLIGEKLFHGVSMSERCYLMKQVLNFTLEEVLFPQSDRFQPYMQEVVPFLARLSNRLSTCHIEGDDLHIQRNVQKLKDTVKKLGESGEIKAIGELDLLFMSLRNACI
modifications: biotinylated (sites not given)
notes: also called huIL-22-biotin
In the case of B1, in assay [2], the binding result is on record as “binds”.
